From doi:10.1101/2022.10.04.510902 (bioRxiv, 2022) come the findings set out here.

For experiment [1], the target named is Full-length mouse His-PERIOD2-flag (mouse, UniProt O54943 1-1257). The experiment can be described thus: pull-down.
Experiment [2] deals with TAMRA-BMAL1 mTAD Δswitch probe (594-F619Y) (mouse). The experiment can be described thus: fluorescence polarisation.
Experiment [3] concerns the target TAMRA-BMAL1 mTAD WT probe (mouse). The experiment can be described thus: fluorescence polarisation. Background: Fluorescence polarisation rises when a labelled molecule tumbles more slowly, as on binding a larger partner.
In experiment [4] the target is BMAL1 transactivation domain (TAD), residues 579-626 (mouse). The experiment can be described thus: ITC. On the technique in general: Isothermal titration calorimetry measures the heat released or taken up as one component is titrated into another.

Sequence of Full-length mouse His-PERIOD2-flag (O54943 whole entry): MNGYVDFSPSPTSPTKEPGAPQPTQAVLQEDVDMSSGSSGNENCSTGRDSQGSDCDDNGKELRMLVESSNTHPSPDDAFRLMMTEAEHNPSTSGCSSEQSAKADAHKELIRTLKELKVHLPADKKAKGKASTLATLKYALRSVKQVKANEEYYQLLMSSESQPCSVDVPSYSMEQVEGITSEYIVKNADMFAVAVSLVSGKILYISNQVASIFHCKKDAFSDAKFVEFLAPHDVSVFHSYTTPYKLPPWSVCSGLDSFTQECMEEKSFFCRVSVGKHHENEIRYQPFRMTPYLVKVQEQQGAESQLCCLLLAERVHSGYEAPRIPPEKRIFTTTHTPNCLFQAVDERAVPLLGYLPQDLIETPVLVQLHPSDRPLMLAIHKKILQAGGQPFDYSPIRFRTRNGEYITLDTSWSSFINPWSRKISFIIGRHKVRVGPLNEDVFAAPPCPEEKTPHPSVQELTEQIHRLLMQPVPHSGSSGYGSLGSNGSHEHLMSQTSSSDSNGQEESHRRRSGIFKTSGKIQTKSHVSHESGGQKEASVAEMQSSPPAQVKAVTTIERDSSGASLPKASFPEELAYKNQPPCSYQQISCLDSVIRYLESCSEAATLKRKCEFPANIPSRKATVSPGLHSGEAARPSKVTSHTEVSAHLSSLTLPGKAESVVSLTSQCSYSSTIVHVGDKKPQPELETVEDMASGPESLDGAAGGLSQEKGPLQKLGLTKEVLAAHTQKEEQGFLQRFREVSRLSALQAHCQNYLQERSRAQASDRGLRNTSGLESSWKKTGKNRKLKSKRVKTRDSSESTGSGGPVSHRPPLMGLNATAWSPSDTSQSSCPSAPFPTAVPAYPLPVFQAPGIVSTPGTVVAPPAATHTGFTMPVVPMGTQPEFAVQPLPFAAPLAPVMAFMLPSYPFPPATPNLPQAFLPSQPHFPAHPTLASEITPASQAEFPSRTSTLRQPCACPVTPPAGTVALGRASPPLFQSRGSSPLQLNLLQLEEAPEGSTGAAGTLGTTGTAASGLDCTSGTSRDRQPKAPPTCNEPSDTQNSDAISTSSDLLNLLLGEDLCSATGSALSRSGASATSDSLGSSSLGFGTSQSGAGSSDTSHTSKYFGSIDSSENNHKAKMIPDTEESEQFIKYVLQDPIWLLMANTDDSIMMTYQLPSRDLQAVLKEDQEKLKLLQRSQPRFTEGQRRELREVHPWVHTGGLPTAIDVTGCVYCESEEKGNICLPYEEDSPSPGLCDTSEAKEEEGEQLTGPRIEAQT

B1: CK1δ kinase domain (residues 1-294) (enzyme, human, UniProt P48730 1-294, looked up)
chain: MELRVGNRYRLGRKIGSGSFGDIYLGTDIAAGEEVAIKLECVKTKHPQLHIESKIYKMMQGGVGIPTIRWCGAEGDYNVMVMELLGPSLEDLFNFCSRKFSLKTVLLLADQMISRIEYIHSKNFIHRDVKPDNFLMGLGKKGNLVYIIDFGLAKKYRDARTHQHIPYRENKNLTGTARYASINTHLGIEQSRRDDLESLGYVLMYFNLGSLPWQGLKAATKRQKYERISEKKMSTPIEVLCKGYPSEFATYLNFCRSLRFDDKPDYSYLRQLFRNLFHRQGFSYDYVFDWNMLK
Regarding B1, the binding result in experiment [1] is recorded as “binds”.

B2: CHRONO minimal repressive domain (MRD), tag form not stated (domain or fragment)
chain: ELETSLNTQGCTTEGDLLFAQKCKELQGFIPPLTDLLNGLKMGRFERGLSSFQQSVAMDRIQRIVGVLQKPQMGERYLGTLLQVEGMLKTWFPQIAAQKSSLGGGKHQLTKHFPSHHSDSAASSPASPMEKMDQTQLGHLALKPK
With B2, the dissociation constant Kd is 1540 nM in experiment [2] and 386 nM in experiment [3]. In addition, the IC50 in experiment [3] came out at 375 nM.

B3: His-CHRONO minimal repressive domain (MRD) (domain or fragment)
chain: ELETSLNTQGCTTEGDLLFAQKCKELQGFIPPLTDLLNGLKMGRFERGLSSFQQSVAMDRIQRIVGVLQKPQMGERYLGTLLQVEGMLKTWFPQIAAQKSSLGGGKHQLTKHFPSHHSDSAASSPASPMEKMDQTQLGHLALKPK
In experiment [4], B3 showed a dissociation constant Kd of 369 nM and a stoichiometry N of 1.

A word on the Kd: it is the equilibrium constant for the complex coming apart. Higher therefore signals a looser complex. As a reminder, the IC50 is the concentration that gives 50% inhibition. By stoichiometry N is commonly meant a count of units in the complex or per binding partner.
